Tested on: Escherichia coli TOP10
Experiment: shrunken log2 fold change of peptide-encoding DNA abundance (4.5 h post-induction vs induction); higher = less antimicrobial activity (less host growth inhibition)
Details: time post-induction: 4.5 h; library: site-saturation at positions 5, 18, 19, 20
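Also: peptides expressed intracellularly from a pBAD plasmid library in pooled LB shake-flask culture, induced with 0.3% L-arabinose, DNA abundance read by NGS, three biological replicates, DESeq2 with apeglm shrinkage.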

## RRIRSRPPRLPRPRPRPIQLPRP
  shrunken log2 fold change: -0.238

## RRIRRRPPRLPRPRPRPSERPRP
  shrunken log2 fold change: -0.0993

## RRIRMRPPRLPRPRPRPEHYPRP
  shrunken log2 fold change: -0.0905

## RRIRHRPPRLPRPRPRPLEHPRP
  shrunken log2 fold change: -0.00318

## RRIRCRPPRLPRPRPRPCSEPRP
  shrunken log2 fold change: -0.495

## RRIRVRPPRLPRPRPRPPIKPRP
  shrunken log2 fold change: -0.151

## RRIRCRPPRLPRPRPRPNMVPRP
  shrunken log2 fold change: 0.0392

## RRIRRRPPRLPRPRPRPSYYPRP
  shrunken log2 fold change: -0.0156

## RRIRSRPPRLPRPRPRPTSAPRP
  shrunken log2 fold change: 0.321

## RRIRFRPPRLPRPRPRPAEDPRP
  shrunken log2 fold change: 0.0423

## RRIRNRPPRLPRPRPRPYPQPRP
  shrunken log2 fold change: -0.138

## RRIRMRPPRLPRPRPRPIAAPRP
  shrunken log2 fold change: 2.71

## RRIRVRPPRLPRPRPRPMHWPRP
  shrunken log2 fold change: 0.253

## RRIRNRPPRLPRPRPRPPTVPRP
  shrunken log2 fold change: 0.175

## RRIRMRPPRLPRPRPRPMTPPRP
  shrunken log2 fold change: 0.582

## RRIRLRPPRLPRPRPRPGWGPRP
  shrunken log2 fold change: 0.335

## RRIRPRPPRLPRPRPRPQNPPRP
  shrunken log2 fold change: -0.216

## RRIRSRPPRLPRPRPRPVERPRP
  shrunken log2 fold change: 0.187

## RRIRWRPPRLPRPRPRPVAAPRP
  shrunken log2 fold change: 0.855

## RRIRCRPPRLPRPRPRPQNSPRP
  shrunken log2 fold change: -0.194

## RRIRSRPPRLPRPRPRPRTSPRP
  shrunken log2 fold change: 0.211

## RRIRFRPPRLPRPRPRPGKHPRP
  shrunken log2 fold change: -0.294

## RRIRIRPPRLPRPRPRPMHMPRP
  shrunken log2 fold change: -0.0247

## RRIRNRPPRLPRPRPRPMQHPRP
  shrunken log2 fold change: -0.0549

## RRIRWRPPRLPRPRPRPEQFPRP
  shrunken log2 fold change: 0.32

## RRIRLRPPRLPRPRPRPNMWPRP
  shrunken log2 fold change: -0.235

## RRIRWRPPRLPRPRPRPSEAPRP
  shrunken log2 fold change: 0.0701

## RRIRLRPPRLPRPRPRPFNEPRP
  shrunken log2 fold change: -0.255

## RRIRCRPPRLPRPRPRPHYHPRP
  shrunken log2 fold change: -0.755

## RRIRLRPPRLPRPRPRPSKHPRP
  shrunken log2 fold change: -0.642

## RRIRRRPPRLPRPRPRPLAPPRP
  shrunken log2 fold change: 0.399

## RRIRCRPPRLPRPRPRPLAHPRP
  shrunken log2 fold change: -0.0666

## RRIRIRPPRLPRPRPRPCYPPRP
  shrunken log2 fold change: -0.428

## RRIRERPPRLPRPRPRPGHRPRP
  shrunken log2 fold change: -0.117

## RRIRPRPPRLPRPRPRPKRRPRP
  shrunken log2 fold change: -0.093

## RRIRQRPPRLPRPRPRPWQCPRP
  shrunken log2 fold change: -0.1

## RRIRMRPPRLPRPRPRPCNNPRP
  shrunken log2 fold change: 0.0654

## RRIRTRPPRLPRPRPRPTTLPRP
  shrunken log2 fold change: -0.316

## RRIRPRPPRLPRPRPRPAQPPRP
  shrunken log2 fold change: 0.732

## RRIRIRPPRLPRPRPRPQQCPRP
  shrunken log2 fold change: -0.211

## RRIRERPPRLPRPRPRPQQHPRP
  shrunken log2 fold change: -0.301

## RRIRLRPPRLPRPRPRPPRDPRP
  shrunken log2 fold change: 0.531

## RRIRYRPPRLPRPRPRPWNHPRP
  shrunken log2 fold change: -0.00776

## RRIRKRPPRLPRPRPRPFHIPRP
  shrunken log2 fold change: -0.025

## RRIRDRPPRLPRPRPRPGIAPRP
  shrunken log2 fold change: 0.37

## RRIRPRPPRLPRPRPRPPLAPRP
  shrunken log2 fold change: 0.513

## RRIRQRPPRLPRPRPRPTMQPRP
  shrunken log2 fold change: 0.0998

## RRIRDRPPRLPRPRPRPRIPPRP
  shrunken log2 fold change: -0.108

## RRIRERPPRLPRPRPRPLGNPRP
  shrunken log2 fold change: -0.477

## RRIRRRPPRLPRPRPRPLFFPRP
  shrunken log2 fold change: 0.137

## RRIRHRPPRLPRPRPRPKVRPRP
  shrunken log2 fold change: -0.0711

## RRIRCRPPRLPRPRPRPFTEPRP
  shrunken log2 fold change: -0.28

## RRIRRRPPRLPRPRPRPECCPRP
  shrunken log2 fold change: 0.566

## RRIRVRPPRLPRPRPRPDWFPRP
  shrunken log2 fold change: -0.597

## RRIRQRPPRLPRPRPRPIQQPRP
  shrunken log2 fold change: -0.039

## RRIRLRPPRLPRPRPRPDYGPRP
  shrunken log2 fold change: -0.23

## RRIRFRPPRLPRPRPRPTAHPRP
  shrunken log2 fold change: 0.193

## RRIRSRPPRLPRPRPRPDRYPRP
  shrunken log2 fold change: -0.172

## RRIRKRPPRLPRPRPRPRHVPRP
  shrunken log2 fold change: 0.0906

## RRIRVRPPRLPRPRPRPTSFPRP
  shrunken log2 fold change: -0.0728

## RRIRLRPPRLPRPRPRPDNHPRP
  shrunken log2 fold change: -0.519

## RRIRLRPPRLPRPRPRPVNMPRP
  shrunken log2 fold change: -0.306

## RRIRRRPPRLPRPRPRPDDWPRP
  shrunken log2 fold change: 0.359

## RRIRERPPRLPRPRPRPYYFPRP
  shrunken log2 fold change: -1.04

## RRIRLRPPRLPRPRPRPTLEPRP
  shrunken log2 fold change: -0.244

## RRIRHRPPRLPRPRPRPQYAPRP
  shrunken log2 fold change: -0.00149

## RRIRSRPPRLPRPRPRPWSIPRP
  shrunken log2 fold change: 0.0338

## RRIRIRPPRLPRPRPRPCTTPRP
  shrunken log2 fold change: -0.543

## RRIRYRPPRLPRPRPRPMDDPRP
  shrunken log2 fold change: -0.0837

## RRIRMRPPRLPRPRPRPHGTPRP
  shrunken log2 fold change: 0.148

## RRIRGRPPRLPRPRPRPLGIPRP
  shrunken log2 fold change: 0.178

## RRIRLRPPRLPRPRPRPPVVPRP
  shrunken log2 fold change: 0.218

## RRIRARPPRLPRPRPRPGWQPRP
  shrunken log2 fold change: 0.0839

## RRIRIRPPRLPRPRPRPRAIPRP
  shrunken log2 fold change: -0.356

## RRIRDRPPRLPRPRPRPYEMPRP
  shrunken log2 fold change: -0.000896

Reference: the supplement of paper PMC9112550, “Optimization of the antimicrobial peptide Bac7 by deep mutational scanning” (BMC Biology, 2022)
